Source: the supplement of paper PMC5998384

Tests used:
[1] = test system: HeLa Kyoto; experiment: solubility in G1/S (NP-40 vs SDS abundance) (log2 ratio); higher = more soluble; settings: cell cycle stage: G1/S
[2] = test system: HeLa Kyoto; experiment: melting temperature (median over replicates), in situ; higher = more thermally stable
[3] = test system: HeLa Kyoto; experiment: solubility change mitosis vs G1/S (difference of NP-40 vs SDS log2 ratios) (log2 ratio difference); higher = more soluble in mitosis
[4] = test system: HeLa Kyoto; experiment: thermal stability score vs G1/S (z-score of summed log2 fold changes over temperatures); higher = more thermally stable than in G1/S
[5] = cell cycle stage: early G1 (4.5 h after nocodazole release)
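Throughout, for melting temperature (median over replicates), in situ: HeLa Kyoto cells synchronized by double thymidine or nocodazole block, proteins quantified by TMT10plex mass spectrometry, three independent biological replicates.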
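Throughout, for solubility change mitosis vs G1/S (difference of NP-40 vs SDS log2 ratios): synchronized HeLa Kyoto cells (double thymidine block for G1/S, nocodazole release for mitosis), protein amounts in NP-40 versus SDS lysates quantified by mass spectrometry, three biological replicates.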
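Throughout, for solubility in G1/S (NP-40 vs SDS abundance): HeLa Kyoto cells arrested at G1/S by double thymidine block, proteins quantified by TMT10plex mass spectrometry in mild NP-40 versus SDS extracts, three biological replicates.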
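Throughout, for thermal stability score vs G1/S (z-score of summed log2 fold changes over temperatures): synchronized HeLa Kyoto cells, proteins quantified by TMT10plex mass spectrometry, three biological replicates, mitosis taken 0.5 h after nocodazole release, G1/S directly after double thymidine block.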

ITCH, sequence (chain, as listed by the source): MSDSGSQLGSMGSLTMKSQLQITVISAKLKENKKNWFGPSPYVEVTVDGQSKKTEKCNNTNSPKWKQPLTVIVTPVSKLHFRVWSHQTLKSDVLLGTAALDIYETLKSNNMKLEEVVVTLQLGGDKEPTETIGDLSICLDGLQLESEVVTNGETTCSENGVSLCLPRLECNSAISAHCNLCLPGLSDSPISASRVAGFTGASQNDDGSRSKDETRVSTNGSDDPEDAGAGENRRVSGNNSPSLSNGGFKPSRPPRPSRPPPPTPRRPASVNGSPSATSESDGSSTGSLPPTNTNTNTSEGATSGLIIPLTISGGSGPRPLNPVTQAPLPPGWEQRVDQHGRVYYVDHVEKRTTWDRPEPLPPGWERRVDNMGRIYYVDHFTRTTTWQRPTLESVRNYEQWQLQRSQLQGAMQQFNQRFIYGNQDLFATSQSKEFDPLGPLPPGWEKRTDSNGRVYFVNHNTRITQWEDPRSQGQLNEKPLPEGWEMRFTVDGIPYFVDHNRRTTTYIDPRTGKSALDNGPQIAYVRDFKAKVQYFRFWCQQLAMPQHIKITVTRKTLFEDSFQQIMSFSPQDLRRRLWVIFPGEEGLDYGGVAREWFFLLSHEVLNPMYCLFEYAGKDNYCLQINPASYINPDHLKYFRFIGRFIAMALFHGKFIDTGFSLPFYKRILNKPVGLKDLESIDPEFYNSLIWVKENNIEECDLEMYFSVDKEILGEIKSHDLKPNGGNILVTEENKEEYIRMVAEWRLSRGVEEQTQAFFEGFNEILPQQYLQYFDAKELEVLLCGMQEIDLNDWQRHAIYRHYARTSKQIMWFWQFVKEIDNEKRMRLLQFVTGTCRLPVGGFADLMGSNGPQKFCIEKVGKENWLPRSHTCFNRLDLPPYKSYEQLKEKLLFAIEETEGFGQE
ZFR, sequence (chain, as listed by the source): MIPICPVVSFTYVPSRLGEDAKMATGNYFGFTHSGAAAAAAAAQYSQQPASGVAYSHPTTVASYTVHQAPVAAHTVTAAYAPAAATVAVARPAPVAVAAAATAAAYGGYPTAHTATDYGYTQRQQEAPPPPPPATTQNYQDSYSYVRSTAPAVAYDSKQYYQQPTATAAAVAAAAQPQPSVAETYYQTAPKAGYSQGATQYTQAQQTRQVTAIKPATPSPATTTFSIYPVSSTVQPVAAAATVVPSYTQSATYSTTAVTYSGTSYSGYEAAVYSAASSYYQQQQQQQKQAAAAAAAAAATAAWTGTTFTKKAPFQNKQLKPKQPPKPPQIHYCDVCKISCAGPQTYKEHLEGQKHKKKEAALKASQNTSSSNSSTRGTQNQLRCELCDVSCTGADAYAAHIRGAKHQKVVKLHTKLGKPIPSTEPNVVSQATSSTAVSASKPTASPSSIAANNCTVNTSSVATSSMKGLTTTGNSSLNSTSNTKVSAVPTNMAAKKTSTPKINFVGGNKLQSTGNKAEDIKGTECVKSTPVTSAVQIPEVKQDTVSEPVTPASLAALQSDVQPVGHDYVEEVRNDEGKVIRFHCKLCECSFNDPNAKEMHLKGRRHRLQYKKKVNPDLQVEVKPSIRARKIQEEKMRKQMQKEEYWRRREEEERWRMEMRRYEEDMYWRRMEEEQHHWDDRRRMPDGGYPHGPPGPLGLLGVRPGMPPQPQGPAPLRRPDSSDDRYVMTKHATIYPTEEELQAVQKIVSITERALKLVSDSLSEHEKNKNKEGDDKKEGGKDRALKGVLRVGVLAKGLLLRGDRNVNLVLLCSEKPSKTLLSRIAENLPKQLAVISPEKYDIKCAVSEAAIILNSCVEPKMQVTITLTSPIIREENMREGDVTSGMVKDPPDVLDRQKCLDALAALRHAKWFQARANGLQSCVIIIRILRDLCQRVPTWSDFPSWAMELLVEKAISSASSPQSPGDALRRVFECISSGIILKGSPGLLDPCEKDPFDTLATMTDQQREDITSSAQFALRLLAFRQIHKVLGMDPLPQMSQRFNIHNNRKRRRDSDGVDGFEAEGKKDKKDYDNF
ADCK3, sequence (chain, as listed by the source): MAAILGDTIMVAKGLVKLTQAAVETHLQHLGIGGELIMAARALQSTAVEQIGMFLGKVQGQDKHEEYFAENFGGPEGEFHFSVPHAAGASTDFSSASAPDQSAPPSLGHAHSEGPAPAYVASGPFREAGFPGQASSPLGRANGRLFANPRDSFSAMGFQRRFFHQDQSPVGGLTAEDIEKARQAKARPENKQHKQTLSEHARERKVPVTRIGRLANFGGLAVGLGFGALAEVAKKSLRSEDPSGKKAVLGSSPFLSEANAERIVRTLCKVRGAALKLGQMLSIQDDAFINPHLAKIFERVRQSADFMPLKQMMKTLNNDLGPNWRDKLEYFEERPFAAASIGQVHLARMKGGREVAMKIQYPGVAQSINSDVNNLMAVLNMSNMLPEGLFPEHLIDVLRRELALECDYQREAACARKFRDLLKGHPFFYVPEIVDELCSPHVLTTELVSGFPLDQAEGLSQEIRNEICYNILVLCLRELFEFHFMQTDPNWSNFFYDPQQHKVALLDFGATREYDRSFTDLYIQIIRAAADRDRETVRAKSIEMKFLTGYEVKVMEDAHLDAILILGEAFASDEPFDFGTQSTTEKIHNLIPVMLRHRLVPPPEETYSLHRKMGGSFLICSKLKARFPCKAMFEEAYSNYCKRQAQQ

Substance	solubility in G1/S (log2) [1]	melting temperature ([2]; cell cycle stage: G1/S) [°C]	melting temperature ([2]; cell cycle stage: mitosis) [°C]	solubility change mitosis (log2) [3]	thermal stability score [4, 5]	thermal stability score ([4]; cell cycle stage: mitosis)
MAARQAVGSGAQETCGLDRILEALKLLLSPGGSGSSSLQVTKHDVLLATLKSNLSALEDKFLKDPQWKNLKLLRDEIADKAEWPQNSVDVTWSFTSQTLLLLLCLKETMIRLAANFNPGKPNPRTPEVAPALSPDALSISQQKTVQFVLQFVVTLGICPYLMPGVGVPLRYRTEFGAVVQDVVCFDAAPDATRRLYTSCKALLNVAQHTSLGSLIFCHHFGDIAAGLCQLGFCPTKRKLLTPAEEVLTEEERTLSRGALRDMLDQVYQPLAVRELLILQGGPPQSCTDVKTQMRCRAPAWLRRLCGQLLSERLMRPNGVQAVVRGILEGAGAGAAGGSDAEVTAADWKKCDLIAKILASCPQQSLSPENYYRDICPQVLDLFHFQDKLTARQFQRVATTTFITLSRERPHLAAKYLLQPVLAPLHRCLNTAELSESDMVPGTILVTEEELSRCIEDVFKVYVVGNEPLTVLMDSLLPVLGVLFLLYCFTKQSVSHIRSLCQEILLWILGKLERKKAIASLKGFAGLDKAVPSLHSLCQFRVATQGGIMITIKEAISDEDEDEALYQKVSSEQGRVEHLGDLLSHCQECGLAGDFFIFCLKELTHVASENETELKTEPFSSKSLLELEQHQTLLVEGQERKLLVLQLMAVLCERMSEQIFTNVTQVVDFVAATLQRACASLAHQAESTVESQTLSMSMGLVAVMLGGAVQLKSSDFAVLKQLLPLLEKVSNTYPDPVIQELAVDLRITISTHGAFATEAVSMAAQSTLNRKDLEGKIEEQQQTSHERPTDVAHSHLEQQQSHETAPQTGLQSNAPIIPQGVNEPSTTTSQKSGSVTTEQLQEVLLSAYDPQIPTRAAALRTLSHWIEQREAKALEMQEKLLKIFLENLEHEDTFVYLSAIQGVALLSDVYPEKILPDLLAQYDSSKDKHTPETRMKVGEVLMRIVRALGDMVSKYREPLIHTFLRGVRDPDGAHRASSLANLGELCQRLDFLLGSVVHEVTACLIAVAKTDGEVQVRRAAIHVVVLLLRGLSQKATEVLSAVLKDLYHLLKHVVCLEPDDVAKLHAQLALEELDDIMKNFLFPPQKLEKKIMVLP [TANGO6]	-0.171	50.6	50.3	-0.193	0.0292	0.767
TACC3	0.351	53.3	53.1	0.304	-0.722	1.13
MAAPAVSGLSRQVRCFSTSVVRPFAKLVRPPVQVYGIEGRYATALYSAASKQNKLEQVEKELLRVAQILKEPKVAASVLNPYVKRSIKVKSLNDITAKERFSPLTTNLINLLAENGRLSNTQGVVSAFSTMMSVHRGEVPCTVTSASPLEEATLSELKTVLKSFLSQGQVLKLEAKTDPSILGGMIVRIGEKYVDMSVKTKIQKLGRAMREIV [ATP5O]	0.365	53.4	53.2	0.116	-2.17	-2.27
MAAAAGMLLLGLLQAGGSVLGQAMEKVTGGNLLSMLLIACAFTLSLVYLIRLAAGHLVQLPAGVKSPPYIFSPIPFLGHAIAFGKSPIEFLENAYEKYGPVFSFTMVGKTFTYLLGSDAAALLFNSKNEDLNAEDVYSRLTTPVFGKGVAYDVPNPVFLEQKKMLKSGLNIAHFKQHVSIIEKETKEYFESWGESGEKNVFEALSELIILTASHCLHGKEIRSQLNEKVAQLYADLDGGFSHAAWLLPGWLPLPSFRRRDRAHREIKDIFYKAIQKRRQSQEKIDDILQTLLDATYKDGRPLTDDEVAGMLIGLLLAGQHTSSTTSAWMGFFLARDKTLQKKCYLEQKTVCGENLPPLTYDQLKDLNLLDRCIKETLRLRPPIMIMMRMARTPQTVAGYTIPPGHQVCVSPTVNQRLKDSWVERLDFNPDRYLQDNPASGEKFAYVPFGAGRHRCIGENFAYVQIKTIWSTMLRLYEFDLIDGYFPTVNYTTMIHTPENPVIRYKRRSK [CYP51A1]	-0.38	48.4	50	0.0784	2.55	3.17
ADCK3	0.231	51.1	50	-0.0659	0.477	-0.51
PSIP1	0.071	50.8	52.2	0.557	-1.03	-2.11
ITCH	-0.468	49.8	51.6	0.0566	0.594	0.999
MAAPSWRGARLVQSVLRVWQVGPHVARERVIPFSSLLGFQRRCVSCVAGSAFSGPRLASASRSNGQGSALDHFLGFSQPDSSVTPCVPAVSMNRDEQDVLLVHHPDMPENSRVLRVVLLGAPNAGKSTLSNQLLGRKVFPVSRKVHTTRCQALGVITEKETQVILLDTPGIISPGKQKRHHLELSLLEDPWKSMESADLVVVLVDVSDKWTRNQLSPQLLRCLTKYSQIPSVLVMNKVDCLKQKSVLLELTAALTEGVVNGKKLKMRQAFHSHPGTHCPSPAVKDPNTQSVGNPQRIGWPHFKEIFMLSALSQEDVKTLKQYLLTQAQPGPWEYHSAVLTSQTPEEICANIIREKLLEHLPQEVPYNVQQKTAVWEEGPGGELVIQQKLLVPKESYVKLLIGPKGHVISQIAQEAGHDLMDIFLCDVDIRLSVKLLK [ERAL1]	0.33	51.2	50.9	-0.061	-1.87	-1.48
ZFR	-0.167	52.4	51.9	0.103	0.655	-0.928
MERQVLLSEPEEAAALYRGLSRQPALSAACLGPEVTTQYGGQYRTVHTEWTQRDLERMENIRFCRQYLVFHDGDSVVFAGPAGNSVETRGELLSRESPSGTMKAVLRKAGGTGPGEEKQFLEVWEKNRKLKSFNLSALEKHGPVYEDDCFGCLSWSHSETHLLYVAEKKRPKAESFFQTKALDVSASDDEIARLKKPDQAIKGDQFVFYEDWGENMVSKSIPVLCVLDVESGNISVLEGVPENVSPGQAFWAPGDAGVVFVGWWHEPFRLGIRFCTNRRSALYYVDLIGGKCELLSDDSLAVSSPRLSPDQCRIVYLQYPSLIPHHQCSQLCLYDWYTKVTSVVVDVVPRQLGENFSGIYCSLLPLGCWSADSQRVVFDSAQRSRQDLFAVDTQVGTVTSLTAGGSGGSWKLLTIDQDLMVAQFSTPSLPPTLKVGFLPSAGKEQSVLWVSLEEAEPIPDIHWGIRVLQPPPEQENVQYAGLDFEAILLQPGSPPDKTQVPMVVMPHGGPHSSFVTAWMLFPAMLCKMGFAVLLVNYRGSTGFGQDSILSLPGNVGHQDVKDVQFAVEQVLQEEHFDASHVALMGGSHGGFISCHLIGQYPETYRACVARNPVINIASMLGSTDIPDWCVVEAGFPFSSDCLPDLSVWAEMLDKSPIRYIPQVKTPLLLMLGQEDRRVPFKQGMEYYRALKTRNVPVRLLLYPKSTHALSEVEVESDSFMNAVLWLRTHLGS [APEH]	0.11	58.5	59.4	-0.0981	-2.58	-2.38
MDTCGVGYVALGEAGPVGNMTVVDSPGQEVLNQLDVKTSSEMTSAEASVEMSLPTPLPGFEDSPDQRRLPPEQESLSRLEQPDLSSEMSKVSKPRASKPGRKRGGRTRKGPKRPQQPNPPSAPLVPGLLDQSNPLSTPMPKKRGRKSKAELLLLKLSKDLDRPESQSPKRPPEDFETPSGERPRRRAAQVALLYLQELAEELSTALPAPVSCPEGPKVSSPTKPKKIRQPAACPGGEEVDGAPRDEDFFLQVEAEDVEESEGPSESSSEPEPVVPRSTPRGSTSGKQKPHCRGMAPNGLPNHIMAPVWKCLHLTKDFREQKHSYWEFAEWIPLAWKWHLLSELEAAPYLPQEEKSPLFSVQREGLPEDGTLYRINRFSSITAHPERWDVSFFTGGPLWALDWCPVPEGAGASQYVALFSSPDMNETHPLSQLHSGPGLLQLWGLGTLQQESCPGNRAHFVYGIACDNGCIWDLKFCPSGAWELPGTPRKAPLLPRLGLLALACSDGKVLLFSLPHPEALLAQQPPDAVKPAIYKVQCVATLQVGSMQATDPSECGQCLSLAWMPTRPHQHLAAGYYNGMVVFWNLPTNSPLQRIRLSDGSLKLYPFQCFLAHDQAVRTLQWCKANSHFLVSAGSDRKIKFWDLRRPYEPINSIKRFLSTELAWLLPYNGVTVAQDNCYASYGLCGIHYIDAGYLGFKAYFTAPRKGTVWSLSGSDWLGTIAAGDISGELIAAILPDMALNPINVKRPVERRFPIYKADLIPYQDSPEGPDHSSASSGVPNPPKARTYTETVNHHYLLFQDTDLGSFHDLLRREPMLRMQEGEGHSQLCLDRLQLEAIHKVRFSPNLDSYGWLVSGGQSGLVRIHFVRGLASPLGHRMQLESRAHFNAMFQPSSPTRRPGFSPTSHRLLPTP [GTF3C2]	-0.18	46.5	49.5	0.119	2.79	6.24
MAETEALSKLREDFRMQNKSVFILGASGETGRVLLKEILEQGLFSKVTLIGRRKLTFDEEAYKNVNQEVVDFEKLDDYASAFQGHDVGFCCLGTTRGKAGAEGFVRVDRDYVLKSAELAKAGGCKHFNLLSSKGADKSSNFLYLQVKGEVEAKVEELKFDRYSVFRPGVLLCDRQESRPGEWLVRKFFGSLPDSWASGHSVPVVTVVRAMLNNVVRPRDKQMELLENKAIHDLGKAHGSLKP [HTATIP2]	0.148	50.8	50.2	-0.095	2.61	4.75
MCGNNMSTPLPAIVPAARKATAAVIFLHGLGDTGHGWAEAFAGIRSSHIKYICPHAPVRPVTLNMNVAMPSWFDIIGLSPDSQEDESGIKQAAENIKALIDQEVKNGIPSNRIILGGFSQGGALSLYTALTTQQKLAGVTALSCWLPLRASFPQGPIGGANRDISILQCHGDCDPLVPLMFGSLTVEKLKTLVNPANVTFKTYEGMMHSSCQQEMMDVKQFIDKLLPPID [LYPLA1]	0.619	54.6	56.2	0.23	0.0704	-0.796
MSDVEENNFEGRESRSQSKSPTGTPARVKSESRSGSRSPSRVSKHSESHSRSRSKSRSRSRRHSHRRYTRSRSHSHSHRRRSRSRSYTPEYRRRRSRSHSPMSNRRRHTGSRANPDPNTCLGVFGLSLYTTERDLREVFSRYGPLSGVNVVYDQRTGRSRGFAFVYFERIDDSKEAMERANGMELDGRRIRVDYSITKRAHTPTPGIYMGRPTHSGGGGGGGGGGGGGGGGRRRDSYYDRGYDRGYDRYEDYDYRYRRRSPSPYYSRYRSRSRSRSYSPRRY [TRA2A]	-1.11	49.1	49.5	0.522	1.2	1.92
MEPAMEPETLEARINRATNPLNKELDWASINGFCEQLNEDFEGPPLATRLLAHKIQSPQEWEAIQALTVLETCMKSCGKRFHDEVGKFRFLNELIKVVSPKYLGSRTSEKVKNKILELLYSWTVGLPEEVKIAEAYQMLKKQGIVKSDPKLPDDTTFPLPPPRPKNVIFEDEEKSKMLARLLKSSHPEDLRAANKLIKEMVQEDQKRMEKISKRVNAIEEVNNNVKLLTEMVMSHSQGGAAAGSSEDLMKELYQRCERMRPTLFRLASDTEDNDEALAEILQANDNLTQVINLYKQLVRGEEVNGDATAGSIPGSTSALLDLSGLDLPPAGTTYPAMPTRPGEQASPEQPSASVSLLDDELMSLGLSDPTPPSGPSLDGTGWNSFQSSDATEPPAPALAQAPSMESRPPAQTSLPASSGLDDLDLLGKTLLQQSLPPESQQVRWEKQQPTPRLTLRDLQNKSSSCSSPSSSATSLLHTVSPEPPRPPQQPVPTELSLASITVPLESIKPSNILPVTVYDQHGFRILFHFARDPLPGRSDVLVVVVSMLSTAPQPIRNIVFQSAVPKVMKVKLQPPSGTELPAFNPIVHPSAITQVLLLANPQKEKVRLRYKLTFTMGDQTYNEMGDVDQFPPPETWGSL [GGA1]	0.556	51.6	51.6	-0.28	-0.271	-0.0298
